# Data: patent US20090291081A1 (AbbVie / Abbott, published 2009)
# Molecular target: T1, human IL-1β (human, UniProt P01584 117-269)
# T1 construct: antigen of the ABT2 dAbs; also called hIL-1β; IL-1 beta
# Assay: IC50 column of Table 63; receptor binding assay presumed
row,IC50,Binder
1,0.1 µM,"ABT2-65-22 (other, VH dAb) VH: EVQLLESGGGLVQPGGSLRLSCAASGFTFLGYPMGWVRQAPGKGLEWVSSISAMGNRTYYADSVKGRFTISPDDSKNTLYLQMNSLRAEDTAVYYCAKNLVRTQSKMWMFDYWGQGTLVTVSS"
2,0.02 µM,"ABT2-65-33 (other, VH dAb) VH: EVQLLESGGGLVQPGGSLRLSCAASGFTFEDYQMGWVRQAPGKGLEWVSSISAMGNRTYYADSVKGRFTISRDDSKNTLYLQMNSLRAEDTAVYYCAQNLVRYMKSQWMFDYWGQGTLVTVSS"
3,0.03 µM,"ABT2-65-46 (other, VH dAb) VH: EVQLLESGGGLVQPGGSLRLSCAASGFTFEDYQMGWVRQAPGKGLEWVSSISAMGNRTYYADSVKGRFTISRDDSKNTLYLQMNSLRAEDTAVYYCAKWLTRTQSKLGYFDYWGQGTLVTVSS"
4,0.004 µM,"ABT2-65-125 (other, VH dAb) VH: EVQLLESGGGLVQPGGSLRLSCVASGFTFEDYQMGWVRQAPGKGLEWISSISAMGNRTYYADSVKGRFTISRDDSKNTLYLQMNSLRAEDTAVYYCAQNLVRLGRSRWMFDYWGQGTLVTVSS"
5,0.005 µM,"ABT2-65-28 (other, VH dAb) VH: EVQLLESGGGLVQPGGSLRLSCAASGFTFEDYQMGWVRQAPGKGLEWVSSISAMGNRTYYADSVKGRFTISRDDSKNTLYLQMNSLRAEDTAVYYCAQNLVQFRRSQWMFDYWGQGTLVTVSS"
6,0.003 µM,"ABT2-65-31 (other, VH dAb) VH: EVQLLESGGGLVQPGGSLRLSCAASGFTFEDYQMGWVRQAPGKGLEWVSSISAMGNRTYYADSVKGRFTISRDDSKNTLYLQMNSLRAEDTAVYYCAQNLVKIMRLKWMFDYWGQGTLVTVSS"
7,0.004 µM,"ABT2-65-32 (other, VH dAb) VH: EVQLLESGGGLVQPGGSLRLSCAASGFTFEDYQMGWVRQAPGKGLEWVSSISAMGNRTYYADSVKGRFTISRDDSKNTLYLQMNSLRAEDTAVYYCAQNLVAVSRGRWMFDYWGQGTLVTVSS"
8,0.03 µM,"ABT2-65-75 (other, VH dAb) VH: EVQLLESGGGLVQHGGSLRLSCVASGFTFEDYQMGWVRQAPGKGLEWVSSISAMGNRTYYADSVKGRFTISRDDSKNTLYLQMNSLRAEDTAVYYCAQNLVRLGKSRWMFDYWGQGTLVTVSS"
9,0.3 µM,"ABT2-65-90 (other, VH dAb) VH: EVQLLESGGGLVQPGGSLRLSCVASGFTFEDYQMGWVRQAPGKGQEWVSSISAMGNRTYYADSVKGRFTISRDDSKNTLYLQMNSLRAEDTAVYYCAQNLVRLGRSRWMFDYWGHGTLVTVSS"
10,0.0038 µM,"ABT2-65-124 (other, VH dAb) VH: EVQLLESGGGLVQPGGSLRLSCVASGFTFEDYQMGWVRQAPGKGLEWVSSISAVGNRTYYADSVKGRFTISRDDSKNTLYLQMNSLRAEDIAVYYCAQNLVRLGRSRWMFDYWGQGTLVTVSS"
11,0.004 µM,"ABT2-65-114 (other, VH dAb) VH: EVQLLESGGGLVQPGGSLRLSCAASGFTFREYMMGWVRQAPGKGLEWVSSISAMGNRTYYADSVKGRFTISRDDSKNTLYLQMNSLRAEDTAVYYCAQNLVRLGRSRWMFDYWGQGTLVTVSS"

# More lines, now with the values behind:
row,Binder,IC50
1,"ABT2-65-29 (other, VH dAb) VH: EVQLLESGGGLVQPGGSLRLSCAASGFTFEDYQMGWVRQAPGKGLEWVSSISAMGNRTYYADSVKGRFTISRDDSKNTLYLQMNSLRAEDTAVYYCAQNLVLVRVGWWMFDYWGQGTLVTVSS",0.02 µM
2,"ABT2-65-115 (other, VH dAb) VH: EVQLLESGGGLVQPGGSLRLSCAASGFTFIDYQMGWVRQAPGKGLEWVSSISAMGNRTYYADSVKGRFTISRDDSKNTLYLQMNSLRAEDTAVYYCAQNLVRLGRSRWMFDYWGQGTLVTVSS",0.004 µM
3,"ABT2-65-24 (other, VH dAb) VH: EVQLLESGGGLVQPGGSLRLSCAASGFTFAAYQMGWVRQAPGKGLEWVSSISAMGNRTYYADSVKGRFTISRDDSKNTLYLQMNSLRAEDTAVYYCAQNLVRTQSKMWMFDYWGQGTLVTVSS",0.05 µM
4,"ABT2-65-26 (other, VH dAb) VH: EVQLLESGGGLVQPGGSLRLSCAASGFTFEDYQMGWVRQAPGKGLEWVSSISAMGNRTYYADSVKGRFTISRDDSKNTLYLQMNSLRAEDTAVYYCAQNLVLVRSGYWMFDYWGQGTLVTVSS",0.02 µM
5,"ABT2-65-87 (other, VH dAb) VH: EVQLLESGGGLVQPGGSLRLSCVASGFTFEDYQMGWVRQAPGKDLEWVSSISAMGNRTYYADSVKGRFTISRDDSKNTLYLQMNSLRAEDTAVYYCAQNLVRLGRSRWMFDYWGQGTLVTVSS",0.05 µM
6,"ABT2-65-30 (other, VH dAb) VH: EVRLLESGGGLVQPGGSLRLSCAASGFTFEDYQMGWVRQAPGKGLEWVSSISAMGNRTYYADSVKGRFTISRDDSKNTLYLQMNSLRAEDTAVYYCAQNLVRLNRRDWMFDYWGQGTLVTVSS",0.02 µM
7,"ABT2-65-121 (other, VH dAb) VH: EVQLLESGGGLVQPGGSLRLSCVASGFTFEDYQMGWVRQAPGKGLEWVSSIAAHGNRTYYADSVKGRFTISRDDSKNTLYLQMNSLRAEDTAVYYCAQNLVRLGRSRWMFDYWGQGTLVTVSS",0.0039 µM
8,"ABT2-65-39 (other, VH dAb) VH: EVQLLESGGGLVQPGGSLRLSCAASGFTFEDYQMGWVRQAPGKGLEWVSSISAMGNRTYYADSVKGRFTISRDDSKNTLYLQMNSLRAEDTAVYYCAGNLVRTQSKMWMFDYWGQGTLVTVSS",0.3 µM
9,"ABT2-65-38 (other, VH dAb) VH: EVQLLESGGGLVQPGGSLRLSCAASGFTFEDYQMGWVRQAPGKGLEWVSSISAMGNRTYYADSVKGRFTIYRDDSKNTLYLQMNSLRAEDTAVYYCAQNLVRTQSKMWMFDYWGQGTLVTVSS",0.03 µM
10,"ABT2-65-27 (other, VH dAb) VH: EVQLLESGGGLVQPGGSLRLSCAASGFTFEDYQMGWVRQAPGKGLEWVSSISAMGNRTYYADSVKGRFTISRDDSKNTLYLQMNSLRAEDTAVYYCAENLVRLWKGRWMFDYWGQGTLVTVSS",0.0035 µM
11,"ABT2-65-119 (other, VH dAb) VH: EVQLLESGGGLVQPGGSLRLSCAASGFTFIAYPMGWVRQAPGKGLEWVSSISAMGNRTYYADSVKGRFTISRDDSKNTLYLQMNSLRAEDTAVYYCAQNLVRLGRSRWMFDYWGQGTLVTVSS",0.004 µM
12,"ABT2-65-76 (other, VH dAb) VH: EVQLLESGGGLVQPGGSLRLSCVASGFTFEDYQMGWVRQAPGKGLEWVTSISAMGNRTYYADSVKGRFTISRDDSKNTLYLQMNSLRAEDTAVYYCAQNLVRLGRSRWMFDYWGQGTLVTVSS",0.008 µM
13,"ABT2-65-78 (other, VH dAb) VH: EVQLLESGGGLVQPGGSLRLSCVASGFTFEDYQMGWVRQAPGKGLEWVSSISAMGNRTYYADSVKGRFTISRDDSKNTLYLQMNSLRAEDTAVYYCAQNLVRLGTSRWMFDYWGQGALVTVSS",0.03 µM
14,"ABT2-65-84 (other, VH dAb) VH: EVQLLESGGGLVQPGGSLRLSCVASGFSFEDYQMGWVRQAPRKGLEWISSISAMGNRTYYADSVKGRFTISRDDSKNTLYLQMNSLRAEDTAVYYCAQNLVRLGRSRWMFDYWGQGTLVTVSS",0.06 µM
15,"ABT2-65-83 (other, VH dAb) VH: EVQLLESGGGLVQPGGSLRLSCVASGFTFEDYQMGWVRQAPGKGLEWVSSISAMGNRTYYADSVKGRFTISRDDSKNTLYLQMNSQRAEDTAVYYCAQNLVRLGRSRWMFDYWGQGTLVTVSS",0.3 µM
16,"ABT2-65-37 (other, VH dAb) VH: EVQLLESGGGLVQPGGSLRLSCAASGFTFADYQMGWVRQAPGKGLEWVSSISAMGNRTYYADSVKGRFTISRDDSKNTLYLQMNSLRAEDTAVYYCAQNLVRTQSKMWMFDYWGQGTLVTVSS",0.1 µM
17,"ABT2-65-49 (other, VH dAb) VH: GVQLLESGGGLVQPGGSLRLSCAASGFTFEDYQMGWVRQAPGKGLEWVSSISAMGNRTYYADSVKGRFTISRDDSKNTLYLQMNSLRAEDTAVYYCAQNLVRTQSKMWMFDYWGQGTLVTVSS",0.02 µM
18,"ABT2-65-118 (other, VH dAb) VH: EVQLLESGGGLVQPGGSLRLSCAASGFTFATYTMGWVRQAPGKGLEWVSSISAMGNRTYYADSVKGRFTISRDDSKNTLYLQMNSLRAEDTAVYYCAQNLVRLGRSRWMFDYWGQGTLVTVSS",0.0046 µM
19,"ABT2-65-25 (other, VH dAb) VH: EVQLLESGGGLVQPGGSLRLSCAASGFTFEDYQMGWVRQAPGKGLEWVSSISAMGNRTYYADSVKGRFTISRDDSKNTLYLQMNSLRAEDTAVYYCAQNLVRYRSYYWMFDYWGQGTLVTVLS",0.004 µM
20,"ABT2-65-120 (other, VH dAb) VH: EVQLLESGGGLVQPGGSLRLSCVASGFTFEDYQMGWVRQAPGKGLEWVSSISAMGMRTYYADSVKGRFTISRDDSKNTLYLQMNSLRAEDTAVYYCAQNLVRLGRSRWMFDYWGQGTLVTVSS",0.0042 µM
21,"ABT2-65-117 (other, VH dAb) VH: EVQLLESGGGLVRPGGSLRLSCVASGFTFEDYQMGWVRQAPGKGLEWISSISAMGNRTYYADSVKGRFTISRDDSKNTLYLQMNSLRAEDTAVYYCAQNLVRLGRSRWMFDYWGQGTLVTVSS",0.01 µM
22,"ABT2-65-23 (other, VH dAb) VH: EVQLLESGGGLVQPGESLRLSCAASGFTFKVYPMGWVRQAPGKGLEWVSSISAMGNRTYYADSVKGRFTISRDDSKNTLYLQMNSLRAEDTAVYYCAKNLVRTQSKMWMFDYWGQGTLVTVSS",0.8 µM
23,"ABT2-65-126 (other, VH dAb) VH: EVQLLESGGGLVQPGGSLRISCVTSGFTFEDYQMGWVRQAPGKGLEWVSSISAMGNRTYYADSVKGRFTISRDDSKNTLNLQMNSLRAEDTAVYYCAQNLVRLGRSRWVFDYWGQGTLVTVSS",0.0043 µM
